This note sets out measurements from patent US20210269545A1.

For experiment [1], the target named is CD38 on cells (human) (UniProt P28907). Put plainly: flow cytometry, Raji cells expressing CD19 and CD38. In general terms: In flow cytometry, cells or beads pass a laser one at a time.
The target is the same in experiment [2]. The experiment is described as above. This is another data set of the same source.
The target is the same in experiment [3]. Put plainly: flow cytometry, Raji cells; adjusted fit with the top asymptote fixed at about the maximum response of Darzalex.
The target of experiment [4] is CD19 on cells (human) (UniProt P15391). Put plainly: flow cytometry, Raji cells expressing CD19 and CD38 (negative control).
Experiment [5] addresses CD38 on cells (human) (UniProt P28907). The experiment is described as above.

Sequence of CD19 on cells (human) (P15391 20-556): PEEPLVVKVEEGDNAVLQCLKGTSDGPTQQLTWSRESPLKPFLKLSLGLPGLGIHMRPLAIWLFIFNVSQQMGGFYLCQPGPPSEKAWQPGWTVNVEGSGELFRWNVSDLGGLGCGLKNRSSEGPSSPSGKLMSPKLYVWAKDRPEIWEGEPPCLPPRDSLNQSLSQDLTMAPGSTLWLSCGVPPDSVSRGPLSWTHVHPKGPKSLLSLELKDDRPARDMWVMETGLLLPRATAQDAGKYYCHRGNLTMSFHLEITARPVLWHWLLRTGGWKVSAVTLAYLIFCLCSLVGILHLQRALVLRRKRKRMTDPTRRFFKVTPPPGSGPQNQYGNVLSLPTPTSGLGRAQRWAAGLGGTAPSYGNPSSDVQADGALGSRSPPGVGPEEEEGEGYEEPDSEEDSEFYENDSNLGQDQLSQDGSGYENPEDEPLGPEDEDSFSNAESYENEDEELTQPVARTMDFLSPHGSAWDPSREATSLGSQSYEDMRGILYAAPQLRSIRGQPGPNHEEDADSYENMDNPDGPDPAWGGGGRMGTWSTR

For orientation: EC50 means the concentration needed to bring the measured effect to its halfway point. As for Darzalex (antibody), the figures for the concentration for a half-maximal effect (EC50) in experiment [1], in experiment [2] and in experiment [3] were 0.195 µg/mL, 1.27 nM and 1.27 nM, respectively. The Max MFI in experiment [1] stood at 4.02e+06 MFI.
Consider IgG1 isotype control (antibody), for which the EC50 in experiment [4] and in experiment [5] was 4620 µg/mL each time. Also, the Max MFI in experiment [4] and in experiment [5] was 38700 MFI throughout.
